The chains are these.
B1: FAM50A (parent)
chain: KKREKQREQMEQMKQRIAEENIMK
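Also: lentivirally expressed fusions sorted by FACS into six bins by GFP to DsRed ratio, PSI derived from sequencing read proportions per bin multiplied by bin number.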

The variants in the series derive from B1. Put plainly: protein stability index of a GFP-peptide fusion (GPS, HEK-293T) (PSI 1-6); higher = more stable. Particulars: c terminus: a fixed tail appended.
On to KKREKPREQMEQMKQRIAEENIMK [Q6P], for which the protein stability index was 4.57.

KKREKAREQMEQMKQRIAEENIMK [Q6A]: the protein stability index came out at 4.48.

As to KKREKSREQMEQMKQRIAEENIMK [Q6S], the protein stability index was found to be 4.96.

As for KKREKYREQMEQMKQRIAEENIMK [Q6Y], the protein stability index amounted to 4.14.

On to KKREKIREQMEQMKQRIAEENIMK [Q6I], for which the protein stability index is 4.67.

As for KKREKVREQMEQMKQRIAEENIMK [Q6V], the protein stability index worked out at 4.49.

As for KKREKKREQMEQMKQRIAEENIMK [Q6K], the protein stability index worked out at 4.67.

As to KKREKCREQMEQMKQRIAEENIMK [Q6C], the protein stability index was determined as 4.17.

On to KKREKLREQMEQMKQRIAEENIMK [Q6L], for which the protein stability index came out at 4.13.

In the case of KKREKMREQMEQMKQRIAEENIMK [Q6M], the protein stability index was found to be 4.62.

Consider KKREKDREQMEQMKQRIAEENIMK [Q6D], for which the protein stability index was 5.06.

On to KKREKHREQMEQMKQRIAEENIMK [Q6H], for which the protein stability index turned out to be 4.7.

For the variant KKREKWREQMEQMKQRIAEENIMK [Q6W], the protein stability index was 3.96.

For the variant KKREKTREQMEQMKQRIAEENIMK [Q6T], the protein stability index was determined as 4.9.

Take KKREKFREQMEQMKQRIAEENIMK [Q6F]: the protein stability index stood at 4.13.

Regarding KKREKGREQMEQMKQRIAEENIMK [Q6G], the protein stability index turned out to be 4.62.

Consider KKREKEREQMEQMKQRIAEENIMK [Q6E], for which the protein stability index stood at 4.81.

KKREKNREQMEQMKQRIAEENIMK [Q6N]: the protein stability index came out at 5.3.

On to KKREKQDEQMEQMKQRIAEENIMK [R7D], for which the protein stability index is 5.39.

As for KKREKQTEQMEQMKQRIAEENIMK [R7T], the protein stability index turned out to be 4.84.

On to KKREKQKEQMEQMKQRIAEENIMK [R7K], for which the protein stability index worked out at 4.81.

Regarding KKREKQYEQMEQMKQRIAEENIMK [R7Y], the protein stability index came to 4.76.

Turning to KKREKQLEQMEQMKQRIAEENIMK [R7L], the protein stability index was 4.95.

Turning to KKREKQQEQMEQMKQRIAEENIMK [R7Q], the protein stability index amounted to 5.25.

For KKREKQVEQMEQMKQRIAEENIMK [R7V], the protein stability index is 4.98.

Take KKREKQPEQMEQMKQRIAEENIMK [R7P]: the protein stability index worked out at 4.7.

As for KKREKQMEQMEQMKQRIAEENIMK [R7M], the protein stability index amounted to 4.52.

Consider KKREKQHEQMEQMKQRIAEENIMK [R7H], for which the protein stability index came to 5.08.

As for KKREKQIEQMEQMKQRIAEENIMK [R7I], the protein stability index came to 4.96.

Regarding KKREKQFEQMEQMKQRIAEENIMK [R7F], the protein stability index stood at 4.52.

Regarding KKREKQEEQMEQMKQRIAEENIMK [R7E], the protein stability index came to 5.81.

As to KKREKQSEQMEQMKQRIAEENIMK [R7S], the protein stability index is 5.51.

KKREKQNEQMEQMKQRIAEENIMK [R7N]: the protein stability index is 4.93.

Consider KKREKQWEQMEQMKQRIAEENIMK [R7W], for which the protein stability index stood at 4.13.

With KKREKQAEQMEQMKQRIAEENIMK [R7A], the protein stability index was 4.91.

Consider KKREKQGEQMEQMKQRIAEENIMK [R7G], for which the protein stability index worked out at 5.21.

Turning to KKREKQCEQMEQMKQRIAEENIMK [R7C], the protein stability index turned out to be 4.71.

As for KKREKQRCQMEQMKQRIAEENIMK [E8C], the protein stability index stood at 4.15.

For KKREKQRAQMEQMKQRIAEENIMK [E8A], the protein stability index came to 4.96.

For the variant KKREKQRIQMEQMKQRIAEENIMK [E8I], the protein stability index amounted to 4.51.

In the case of KKREKQRGQMEQMKQRIAEENIMK [E8G], the protein stability index came to 4.85.

KKREKQRFQMEQMKQRIAEENIMK [E8F]: the protein stability index came to 4.29.

Take KKREKQRDQMEQMKQRIAEENIMK [E8D]: the protein stability index is 4.63.

For the variant KKREKQRHQMEQMKQRIAEENIMK [E8H], the protein stability index amounted to 3.74.

In the case of KKRELQREQMEQMKQRIAEENIMK [K5L], the protein stability index was 4.68.

On to KKREQQREQMEQMKQRIAEENIMK [K5Q], for which the protein stability index came out at 4.39.

For the variant KKRESQREQMEQMKQRIAEENIMK [K5S], the protein stability index was 4.92.

KKREYQREQMEQMKQRIAEENIMK [K5Y]: the protein stability index was 4.11.

With KKREIQREQMEQMKQRIAEENIMK [K5I], the protein stability index came out at 4.76.

In the case of KKREVQREQMEQMKQRIAEENIMK [K5V], the protein stability index came out at 4.96.

With KKREEQREQMEQMKQRIAEENIMK [K5E], the protein stability index was determined as 5.26.

KKREAQREQMEQMKQRIAEENIMK [K5A]: the protein stability index came to 4.38.

In the case of KKREGQREQMEQMKQRIAEENIMK [K5G], the protein stability index amounted to 4.55.

KKREDQREQMEQMKQRIAEENIMK [K5D]: the protein stability index is 4.75.

For the variant KKREMQREQMEQMKQRIAEENIMK [K5M], the protein stability index stood at 4.95.

Regarding KKREFQREQMEQMKQRIAEENIMK [K5F], the protein stability index stood at 4.8.

Turning to KKREPQREQMEQMKQRIAEENIMK [K5P], the protein stability index was 5.34.

With KKREHQREQMEQMKQRIAEENIMK [K5H], the protein stability index came to 5.12.

In the case of KKRETQREQMEQMKQRIAEENIMK [K5T], the protein stability index stood at 5.16.

On to KKREWQREQMEQMKQRIAEENIMK [K5W], for which the protein stability index was 4.46.

KKRERQREQMEQMKQRIAEENIMK [K5R]: the protein stability index turned out to be 4.62.

On to KKRECQREQMEQMKQRIAEENIMK [K5C], for which the protein stability index is 5.05.

KKRENQREQMEQMKQRIAEENIMK [K5N]: the protein stability index came out at 5.25.

With KKRIKQREQMEQMKQRIAEENIMK [E4I], the protein stability index was 4.53.

In the case of KKRHKQREQMEQMKQRIAEENIMK [E4H], the protein stability index was 4.38.

Consider KKRQKQREQMEQMKQRIAEENIMK [E4Q], for which the protein stability index came to 4.79.

On to KKRAKQREQMEQMKQRIAEENIMK [E4A], for which the protein stability index amounted to 5.04.

In the case of KKRYKQREQMEQMKQRIAEENIMK [E4Y], the protein stability index amounted to 4.27.

In the case of KKRCKQREQMEQMKQRIAEENIMK [E4C], the protein stability index was 4.42.

For KKRRKQREQMEQMKQRIAEENIMK [E4R], the protein stability index stood at 4.32.

Turning to KKRMKQREQMEQMKQRIAEENIMK [E4M], the protein stability index came out at 4.5.

In the case of KKRNKQREQMEQMKQRIAEENIMK [E4N], the protein stability index was determined as 4.37.

KKRVKQREQMEQMKQRIAEENIMK [E4V]: the protein stability index was determined as 4.49.

Take KKRTKQREQMEQMKQRIAEENIMK [E4T]: the protein stability index was 4.09.

Regarding KKRGKQREQMEQMKQRIAEENIMK [E4G], the protein stability index is 4.71.

As to KKRLKQREQMEQMKQRIAEENIMK [E4L], the protein stability index was found to be 4.21.

With KKRFKQREQMEQMKQRIAEENIMK [E4F], the protein stability index stood at 4.39.

In the case of KKRPKQREQMEQMKQRIAEENIMK [E4P], the protein stability index amounted to 4.42.

As for KKRDKQREQMEQMKQRIAEENIMK [E4D], the protein stability index is 5.21.

For the variant KKRSKQREQMEQMKQRIAEENIMK [E4S], the protein stability index was found to be 4.47.

On to KKRWKQREQMEQMKQRIAEENIMK [E4W], for which the protein stability index amounted to 3.96.

Regarding KKRKKQREQMEQMKQRIAEENIMK [E4K], the protein stability index was 4.28.

For KKIEKQREQMEQMKQRIAEENIMK [R3I], the protein stability index amounted to 5.16.

In the case of KKNEKQREQMEQMKQRIAEENIMK [R3N], the protein stability index came out at 5.08.

For the variant KKWEKQREQMEQMKQRIAEENIMK [R3W], the protein stability index worked out at 4.25.

Turning to KKMEKQREQMEQMKQRIAEENIMK [R3M], the protein stability index was 5.04.

Regarding KKTEKQREQMEQMKQRIAEENIMK [R3T], the protein stability index was determined as 5.2.

For KKSEKQREQMEQMKQRIAEENIMK [R3S], the protein stability index was found to be 4.78.

As for KKYEKQREQMEQMKQRIAEENIMK [R3Y], the protein stability index is 4.04.

Turning to KKVEKQREQMEQMKQRIAEENIMK [R3V], the protein stability index worked out at 5.21.

In the case of KKQEKQREQMEQMKQRIAEENIMK [R3Q], the protein stability index is 5.48.

Consider KKPEKQREQMEQMKQRIAEENIMK [R3P], for which the protein stability index stood at 5.26.

Regarding KKKEKQREQMEQMKQRIAEENIMK [R3K], the protein stability index turned out to be 5.06.

Turning to KKLEKQREQMEQMKQRIAEENIMK [R3L], the protein stability index stood at 4.93.

The values are drawn from the supplement of paper PMC10567573.
